Test results taken from patent US20030165543A1 (LOMA LINDA UNIVERSITY, published 2003).

Biological target: bovine serum albumin (bovine, UniProt P02769 25-607)
Assay: GM1-ELISA binding assay

bovine serum albumin, sequence (P02769 25-607 limits assumed): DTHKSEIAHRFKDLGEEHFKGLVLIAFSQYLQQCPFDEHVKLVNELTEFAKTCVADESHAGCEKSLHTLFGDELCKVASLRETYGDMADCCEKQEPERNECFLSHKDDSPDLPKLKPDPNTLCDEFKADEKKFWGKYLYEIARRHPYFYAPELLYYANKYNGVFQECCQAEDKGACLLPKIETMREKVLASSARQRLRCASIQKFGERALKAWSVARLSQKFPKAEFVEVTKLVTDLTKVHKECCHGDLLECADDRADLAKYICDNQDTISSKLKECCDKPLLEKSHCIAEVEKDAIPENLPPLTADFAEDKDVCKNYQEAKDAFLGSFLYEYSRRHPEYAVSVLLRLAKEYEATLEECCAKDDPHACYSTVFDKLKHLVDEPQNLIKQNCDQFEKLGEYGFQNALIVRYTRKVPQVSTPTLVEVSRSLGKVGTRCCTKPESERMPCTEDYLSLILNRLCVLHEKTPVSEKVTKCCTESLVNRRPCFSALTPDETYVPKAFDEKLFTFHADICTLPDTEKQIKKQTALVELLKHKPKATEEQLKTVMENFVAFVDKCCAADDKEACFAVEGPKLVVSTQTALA

B1: bacterial cholera toxin B subunit (CTB), pentameric (other)
chain: TPQNITDLCAEYHNTQIYTLNDKIFSYTESLAGKREMAIITFKNGAIFQVEVPGSQHIDSQKKAIERMKDTLRIAYLTEAKVEKLCVWNNKTPHAIAAISMAN
B1: no binding.
